Measurements published in the supplement of paper PMC7877785.
± gives the uncertainty stated by the source.

Test: self-splicing fitness, log relative to wild type (ln ratio); higher = more splicing; Tetrahymena group I intron in knt gene, E. coli kanamycin selection, DiMSum; sequences stand for … in CUCUCU…GGAGGGAAAAGUUAUCAGGCAUGCACCUGGUAGCUAGUCUUUAAACCAAUAGAUUGCAUCGGUUUAAAAGGCAAGACCGUCAAAUUGCGGGAAAGGGGUCAACAGCCGUUCAGUACCAAGUCUCAGGGGAAACUUUGAGAUGGCCUUGCAAAGGGUAUGGUAAUAAGCUGACGGACAUGGUCCUAACCACGCAGCCAAGUCCUAAGUCAACAGAUCUUCUGUUGAUAUGGAUGCAGUUCACAGACUAAAUGUCGGUCGGGGAAGAUGUAUUCUUCUCAUAAGAUAUAGUCGGACCUCUCCUUAAUGGGAGCUAGCGGAUGAAGUGAUGCAACACUGGAGCCGCUGGGAACUAAUUUGUAUGCGAAAGUAUAUUGAUUAGUUUUGGAGUACUCGUGGUCG
Outline: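 Six replicate transformations of E. coli BL21(DE3) with a pET-22b(+) library were grown overnight at 37°C or 30°C. The library randomised all eight P1ex-region intron nucleotides, the intron lying in the knt kanamycin-resistance gene, and plates were LB agar with or without 25 μg/mL kanamycin plus 100 μg/mL carbenicillin, 50 μM IPTG and 0.2% rhamnose. Pooled colonies were amplicon-sequenced on an Illumina HiSeq 2500, and fitness is the DiMSum error-weighted combination of wild-type-normalised replicate fold changes, kanamycin versus none.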

Sequence	self-splicing fitness (ln) (30 °C)	self-splicing fitness (ln) (37 °C)
GGGAAGCAAUAUUACGAUUU	-0.13 ± 0.1	-0.16 ± 0.12
GGGAAGCAAUAUUACGCGUG	-1.02 ± 0.076	-0.978 ± 0.096
GGGAAGCAAUAUUACGGACA	-0.34 ± 0.087	-0.0303 ± 0.13
GGGAAGCAAUAUUACGGGGC	-2.85 ± 0.34	
GGGAAGCAAUAUUACGGUAU	-2.78 ± 0.18	-1.63 ± 0.15
GGGAAGCAAUAUUACGGUUU	-1.89 ± 0.099	-1.07 ± 0.1
GGGAAGCAAUAUUACGUAUC	-1.43 ± 0.074	-1.03 ± 0.11
GGGAAGCAAUAUUACGUGAG	-0.751 ± 0.12	-1.46 ± 0.12
GGGAAGCAAUAUUACGUGUA	-1.96 ± 0.14	-0.669 ± 0.11
GGGCAGCAAUAUUACGAGAG	-4.06 ± 0.17	-2.82 ± 0.16
GGGCAGCAAUAUUACGAUCU	-0.541 ± 0.092	0.124 ± 0.12
GGGCAGCAAUAUUACGAUUG	-3.83 ± 0.4	-2.84 ± 0.27
GGGCAGCAAUAUUACGCCAA	-0.582 ± 0.19	-0.176 ± 0.24
GGGCAGCAAUAUUACGCCAC	-3.34 ± 0.37	-1.22 ± 0.38
GGGCAGCAAUAUUACGCCCA	-2.18 ± 0.48	-1.26 ± 0.32
GGGCAGCAAUAUUACGCGAC	-2.37 ± 0.13	-2.17 ± 0.21
GGGCAGCAAUAUUACGCGCA	-0.298 ± 0.13	-0.184 ± 0.13
GGGCAGCAAUAUUACGCUAA	-0.45 ± 0.087	0.361 ± 0.14
GGGCAGCAAUAUUACGGCUA	-0.49 ± 0.13	0.227 ± 0.14
GGGCAGCAAUAUUACGGCUU	-0.964 ± 0.15	-1.14 ± 0.16
GGGCAGCAAUAUUACGGGAG	-3.27 ± 0.22	-2.21 ± 0.2
GGGCAGCAAUAUUACGGGAU	-4.22 ± 0.42	-1.2 ± 0.17
GGGCAGCAAUAUUACGGGUU	-1.58 ± 0.12	-0.384 ± 0.12
GGGCAGCAAUAUUACGUAAC	-1.94 ± 0.18	-0.668 ± 0.2
GGGCAGCAAUAUUACGUCCG	-0.61 ± 0.091	-0.058 ± 0.14

Sequence	self-splicing fitness (ln) (30 °C)	self-splicing fitness (ln) (37 °C)
GGGCAGCAAUAUUACGUCGC	-1.69 ± 0.1	-1.54 ± 0.14
GGGCAGCAAUAUUACGUCGG	-0.72 ± 0.12	0.392 ± 0.15
GGGCAGCAAUAUUACGUGAU	-1.61 ± 0.11	0.0478 ± 0.11
GGGCAGCAAUAUUACGUUCC	-2.68 ± 0.23	-2.58 ± 0.37
GGGCAGCAAUAUUACGUUCG	-0.761 ± 0.088	-0.431 ± 0.11
GGGGAGCAAUAUUACGACGA	-2.56 ± 0.4	-1.34 ± 0.28
GGGGAGCAAUAUUACGAGUA	-2.89 ± 0.3	-2.98 ± 0.43
GGGGAGCAAUAUUACGAGUU	-3.08 ± 0.45	
GGGGAGCAAUAUUACGCGCG	-1.83 ± 0.15	-0.952 ± 0.17
GGGGAGCAAUAUUACGCGGC		-1.24 ± 0.49
GGGGAGCAAUAUUACGCGGG	-2.7 ± 0.31	-1.72 ± 0.39
GGGGAGCAAUAUUACGCGUC	-3.26 ± 0.43	-1.47 ± 0.23
GGGGAGCAAUAUUACGCUCU		-2.19 ± 0.49
GGGGAGCAAUAUUACGCUGG	-2.98 ± 0.47	-0.764 ± 0.47
GGGGAGCAAUAUUACGGCAU	-1.9 ± 0.13	-1.53 ± 0.15
GGGGAGCAAUAUUACGGCGG		-0.394 ± 0.41
GGGGAGCAAUAUUACGGGAU	-3.44 ± 0.32	-1.51 ± 0.22
GGGGAGCAAUAUUACGUACG	-1.76 ± 0.16	-0.525 ± 0.18
GGGGAGCAAUAUUACGUAGG	-2.68 ± 0.2	-1.85 ± 0.21
GGGGAGCAAUAUUACGUAUU		-3.33 ± 0.42
GGGGAGCAAUAUUACGUGAA	-2.71 ± 0.085	-1.81 ± 0.12
GGGUAGCAAUAUUACGACGC	-1.08 ± 0.14	0.108 ± 0.25
GGGUAGCAAUAUUACGACGU	-0.726 ± 0.12	-0.0177 ± 0.14
GGGUAGCAAUAUUACGCGAG	-1.85 ± 0.32	-0.555 ± 0.18
GGGUAGCAAUAUUACGCUCA	-0.291 ± 0.17	-0.622 ± 0.26

Sequence	self-splicing fitness (ln) (30 °C)	self-splicing fitness (ln) (37 °C)
GGGUAGCAAUAUUACGCUCG	-0.269 ± 0.13	-0.258 ± 0.16
GGGUAGCAAUAUUACGGCCA	-0.214 ± 0.16	-0.498 ± 0.24
GGGUAGCAAUAUUACGGGGA	-3.52 ± 0.35	-2.31 ± 0.38
GGGUAGCAAUAUUACGGGGU	-3.33 ± 0.32	-3.06 ± 0.47
GGGUAGCAAUAUUACGGUGC	-1.9 ± 0.085	-1.34 ± 0.092
GGGUAGCAAUAUUACGUAAU	-0.889 ± 0.085	-0.379 ± 0.11
GGGUAGCAAUAUUACGUACU	-2.25 ± 0.4	-1.43 ± 0.38
GGGUAGCAAUAUUACGUGCG	-0.234 ± 0.097	-0.0569 ± 0.12
GGGUAGCAAUAUUACGUGCU	-0.698 ± 0.15	-0.399 ± 0.19
GGGUAGCAAUAUUACGUGGC		-2.64 ± 0.33
GGGUAGCAAUAUUACGUUUA	-0.585 ± 0.12	-0.381 ± 0.1
GGUAAGCAAUAUUACGAAUG	-2.23 ± 0.29	-2.81 ± 0.36
GGUAAGCAAUAUUACGAGUC	-2.59 ± 0.16	-0.851 ± 0.13
GGUAAGCAAUAUUACGCAAC		-1.35 ± 0.38
GGUAAGCAAUAUUACGCACG	0.408 ± 0.12	-0.102 ± 0.14
GGUAAGCAAUAUUACGCAUG	-2.62 ± 0.12	-1.13 ± 0.11
GGUAAGCAAUAUUACGCCAA	-2.07 ± 0.23	-2.09 ± 0.24
GGUAAGCAAUAUUACGCCGU	-1.93 ± 0.11	-0.738 ± 0.13
GGUAAGCAAUAUUACGCGGC	-2.84 ± 0.19	-1.29 ± 0.2
GGUAAGCAAUAUUACGCGUU	-1.34 ± 0.091	-0.615 ± 0.13
GGUAAGCAAUAUUACGGAAU	-3.35 ± 0.22	-1.87 ± 0.22
GGUAAGCAAUAUUACGGACG	0.0239 ± 0.12	0.484 ± 0.15
GGUAAGCAAUAUUACGGCGA	-0.523 ± 0.11	-0.26 ± 0.13
GGUAAGCAAUAUUACGGGUC	-2.39 ± 0.24	-1.81 ± 0.31
GGUAAGCAAUAUUACGGUAG	-3.72 ± 0.19	-3.15 ± 0.23

Sequence	self-splicing fitness (ln) (30 °C)	self-splicing fitness (ln) (37 °C)
GGUAAGCAAUAUUACGGUUG	-3.76 ± 0.39	
GGUAAGCAAUAUUACGUAAA	-0.961 ± 0.083	-1.13 ± 0.13
GGUAAGCAAUAUUACGUAAG	-2.85 ± 0.16	-2.17 ± 0.17
GGUAAGCAAUAUUACGUGCA	-0.586 ± 0.089	-0.233 ± 0.13
GGUAAGCAAUAUUACGUUAC	-3.08 ± 0.34	-1.35 ± 0.31
GGUCAGCAAUAUUACGAACG	0.0341 ± 0.039	0.332 ± 0.057
GGUCAGCAAUAUUACGAAUA	-0.866 ± 0.13	-0.645 ± 0.14
GGUCAGCAAUAUUACGAAUU	0.104 ± 0.078	0.599 ± 0.091
GGUCAGCAAUAUUACGACGU	0.0937 ± 0.091	0.477 ± 0.1
GGUCAGCAAUAUUACGACUC	-3.25 ± 0.24	-1.61 ± 0.32
GGUCAGCAAUAUUACGAGAU	-2.39 ± 0.14	-2.31 ± 0.23
GGUCAGCAAUAUUACGAGGU	-1.01 ± 0.13	-1.7 ± 0.22
GGUCAGCAAUAUUACGAUAC	-1.32 ± 0.16	-1.59 ± 0.19
GGUCAGCAAUAUUACGCAAA	-1.16 ± 0.17	-0.412 ± 0.18
GGUCAGCAAUAUUACGCACU	-2.12 ± 0.27	-0.976 ± 0.24
GGUCAGCAAUAUUACGCAUU	0.00502 ± 0.059	0.0322 ± 0.069
GGUCAGCAAUAUUACGCCCA	-1.55 ± 0.21	-0.611 ± 0.28
GGUCAGCAAUAUUACGCUUA	0.0476 ± 0.059	0.296 ± 0.078
GGUCAGCAAUAUUACGGAGG		-2.54 ± 0.36
GGUCAGCAAUAUUACGGAUA	-0.579 ± 0.086	0.248 ± 0.11
GGUCAGCAAUAUUACGGGAG	-3.38 ± 0.22	-1.45 ± 0.12
GGUCAGCAAUAUUACGGGUG	-1.3 ± 0.067	-0.637 ± 0.072
GGUCAGCAAUAUUACGGUAU	-0.344 ± 0.11	0.218 ± 0.13
